Data published in the supplement of paper PMC10567573.
± gives the standard deviation.

Assay: protein stability index of a GFP-peptide fusion (GPS, HEK-293T) (PSI 1-6); higher = more stable
[1] = treatment: DMSO, c terminus: a fixed tail appended
[2] = treatment: MLN4924 1 uM, 8 h, c terminus: a fixed tail appended
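Note: 24-mer peptide tiles fused after GFP, lentivirally expressed, FACS-sorted into six equal bins by GFP/DsRed ratio, decoded by Illumina sequencing, PSI is the read-weighted mean bin number.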

Sequence | protein stability index [1] | protein stability index [2] | protein stability index (treatment: DMSO, c terminus: native) | protein stability index (treatment: MLN4924 1 uM, 8 h, c terminus: native)
SRREIRKIMGVEEEDDDDDDDDNL [ANKRD40] | 5.44 ± 0.12 | 5.53 ± 0.16 | – | –
EYQPLQIETYGPHVPELEMLGRLG [MNAT1] | 3.18 ± 0.28 | 3.76 ± 0.31 | – | –
LLQTEPQNNQAKELERLIDKAMKK [FIS1] | 3.99 ± 0.19 | 4.27 ± 0.17 | – | –
LTGVLCSYPNPNEDKCPGNYTNPL [TMEM192] | 3.26 ± 0.19 | 3.36 ± 0.25 | – | –
VLLMHMPAEQAFWCLVQICEKYLP [TBC1D10A] | 2.96 ± 0.37 | 2.88 ± 0.57 | – | –
KSKKYSDVEVPASVTGYSFASDGD [ADD1] | 4.68 ± 0.38 | 4.82 ± 0.22 | – | –
DADILGLKKSNSAPSKKAAKDPGK [FBF1] | 5.18 ± 0.18 | 5.22 ± 0.42 | – | –
MHLKPYWKLQKKEHPPEVSRETQR [FBXO34] | 3.58 ± 0.18 | 3.78 ± 0.33 | – | –
TRDGFKLVMASLYHIYVALEEEIE [HMOX1] | 2.15 ± 0.52 | 2.56 ± 0.51 | – | –
LPPNNSYADFERFSKVLEEAAAAE [DAPK3] | 4.95 ± 0.57 | 5.07 ± 0.058 | – | –
RIRAILSTYRKRTPVMEGYVEVKE [LOXL2] | 2.62 ± 0.35 | 2.67 ± 0.38 | – | –
QLATSSFLLFLLTGIVSVAFLLLP [MOSPD3] | 3.5 ± 0.19 | 2.88 ± 0.54 | – | –
YSNTDANILFYVVGLRNTLTRIRK [GLT8D2] | 2.3 ± 0.61 | 2.45 ± 0.3 | – | –
ITRPSPRRSNSPDKFKRPTPPPSP [CCDC6] | 5.18 ± 0.13 | 5.44 ± 0.081 | – | –
TIVNFPITNVDLREYLSEEVQAVH [USP39] | 2.92 ± 0.18 | 3.41 ± 0.41 | – | –
LQHMKAVQADQERERQRRLEVERE [LRRC59] | 5.24 ± 0.33 | 5.09 ± 0.27 | – | –
VDSHHEYPAMTFYSPAVMNYSIPS [ESR2] | 2.8 ± 0.18 | 2.89 ± 0.24 | – | –
NKYDNTCLMIAAYKGHTDVVRYLL [FEM1B] | 2.44 ± 0.66 | 2.31 ± 0.29 | – | –
FQTAIDIFEDRIRGIDIIKWMERY [TRAF3IP2] | 1.9 ± 0.34 | 2.43 ± 0.66 | – | –
EEENPGGCEDEYLVNPTCQVLVKD [ZER1] | 5.54 ± 0.22 | 5.54 ± 0.22 | – | –
TDGGGWLVFQRRMDGQTDFWRDWE [TNXB] | 2.33 ± 0.53 | 2.25 ± 0.65 | – | –
CQHLSSSAEELRKARSNSTLSKSE [KCNA3] | 5.01 ± 0.33 | 4.75 ± 0.26 | – | –
MIPGFRDLTSEDQIVLLKSSAIEV [VDR] | 2.33 ± 0.25 | 2.43 ± 0.18 | – | –

Sequence | protein stability index [1] | protein stability index [2] | protein stability index (treatment: DMSO, c terminus: native) | protein stability index (treatment: MLN4924 1 uM, 8 h, c terminus: native)
PPLSHIMAQPLCIRALLNLHTDVG [NEK8] | 2.21 ± 0.41 | 2.03 ± 0.13 | – | –
MSGKSPVESSLNVKTKKNAPSATI [FBXO34] | 4.5 ± 0.22 | 4.6 ± 0.12 | – | –
LEKVLEENAQKKRFNQVLKNLLHA [VPS39] | 2.85 ± 0.22 | 2.98 ± 0.23 | – | –
DAVQTSLMDEGASSEKKRQSSADG [RBBP5] | 5.49 ± 0.26 | 5.48 ± 0.19 | – | –
CGHTFCRLCLPALSQMGAQSSGKI [TRIM15] | 2.12 ± 0.42 | 2.36 ± 0.46 | – | –
DDDFSIHAAHVVCRELGYVEAKSW [LOXL2] | 2.72 ± 0.24 | 2.83 ± 0.33 | – | –
QKHTEVETVDLVLKLKNKLLQADR [DENND6A] | 3.49 ± 0.33 | 3.45 ± 0.32 | – | –
DENSSDGRYVKENCKPLKSYMLQD [CLK3] | 4.57 ± 0.49 | 4.36 ± 0.11 | – | –
EEPVFEAVINWVKHAKKEREESLP [KLHL12] | 4.16 ± 0.48 | 4.17 ± 0.28 | – | –
VISCEFAHNSNWYITFQSDTDAQQ [LARP4] | 2.47 ± 0.23 | 2.56 ± 0.19 | – | –
RLVLCMELANGKPQTRSGPECGLA [ADAMTSL2] | – | 2.22 ± 0.53 | – | –
GERETRTPEELTILGETQEEEDEI [CLCN6] | 5.79 ± 0.11 | 5.64 ± 0.37 | – | –
SHLQWQESRLKRSNPLAREIFRRH [ZSCAN9] | 3.18 ± 0.29 | 3.35 ± 0.27 | – | –
FDHPIPRVFQNRFSTQYRCFSVSM [UFD1] | 2.89 ± 1 | 2.45 ± 0.6 | – | –
GQRQLMVPARDGTSCKLTDLRGVC [ADAMTSL2] | 3.08 ± 0.28 | 3.01 ± 0.16 | – | –
RLENRYEALAKQVASEMRFVQDLV [DAPK3] | 2.5 ± 0.16 | 2.45 ± 0.25 | – | –
SMGFSARYNFTPDPDFKDLGALKP [NETO1] | 3.02 ± 0.33 | 3.26 ± 0.17 | – | –
VHYAKVQLRFQHSQDVSDCYLELF [PLEKHN1] | 2.88 ± 0.82 | 2.76 ± 0.52 | – | –
EVDPVRRAVRDRNLLRDDRVLQNL [CCND2] | 4.1 ± 0.2 | 4.01 ± 0.27 | – | –
SHKRKRSSGSFCYCHPDSETDEDE [GMCL1] | 5.21 ± 0.4 | 5.34 ± 0.2 | – | –
EVPLISFTGSQPTAERITQLSAPH [ALDH8A1] | 3.86 ± 0.35 | 3.96 ± 0.43 | – | –
QAIEPQAIVQQVPAPSRMQMPQGN [SNX8] | 4.64 ± 0.25 | 4.75 ± 0.22 | – | –
MVQVACGASHVLALSTERELFAWG [NEK8] | 2.59 ± 1.1 | 2.32 ± 0.84 | – | –

Sequence | protein stability index [1] | protein stability index [2] | protein stability index (treatment: DMSO, c terminus: native) | protein stability index (treatment: MLN4924 1 uM, 8 h, c terminus: native)
EDYPAALPNHKPKGTFKDYVRDRA [ETS1] | 4.57 ± 0.1 | 4.62 ± 0.32 | – | –
NSLEGGTDATAFWWGEWTKWTACS [ADAMTSL2] | – | 3.25 ± 0.35 | – | –
QGVCYLVLCEAAFPKKLAFAYLED [SEC22B] | 3.26 ± 0.27 | 3.05 ± 0.058 | – | –
KDNEFTSKPWHWPINYQGLRFSGV [POMT2] | 2.23 ± 0.23 | 2.42 ± 0.22 | – | –
GRVSKQASQPVKKQQENATSCSLE [WDR41] | 5.22 ± 0.1 | 5.29 ± 0.16 | – | –
LLIDFAYTSQITVEEGNVQTLLPA [KLHL20] | 2.29 ± 0.5 | 1.94 ± 0.12 | – | –
MVKPLLHMLLNTTLNIKETDSKEL [ZBED1] | 2.13 ± 0.58 | 2.24 ± 0.38 | – | –
MRSPQNLHSQEDDDSSSESGSGNG [NOL4L] | 5.64 ± 0.21 | 5.51 ± 0.16 | – | –
AKECMLQEENKSLREENKALREEN [CBY2] | 5.55 ± 0.22 | 5.51 ± 0.2 | – | –
ELTNGVINAAFMLLFKDLIKLFAC [SNAP91] | 3.57 ± 0.5 | 3.14 ± 0.57 | – | –
NSNQATDIMETSGWKSMIQSHPHL [SPOPL] | 3.34 ± 0.22 | 3.48 ± 0.21 | – | –
PMALLTIGSSSEKEIDDVIDEIIS [TFE3] | 2.98 ± 0.099 | 3.29 ± 0.095 | – | –
DSDKLSGLWSRISHLVLPVQPVSS [TOR1AIP2] | 2.3 ± 0.24 | 2.32 ± 0.21 | – | –
CNQCGKCFIQSSHLIRHQITHTRE [ZNF8] | 4.28 ± 0.19 | 4.47 ± 0.21 | – | –
REEEEQVRAHAPRGNAPPRGKGL [KCNG1] | – | – | 3.15 ± 1.3 | 3.68 ± 0.65
WTALHFAAQNGDESSTRLLLEKNA [RIPK4] | 3.4 ± 0.08 | 3.28 ± 0.33 | – | –
KSEYMEIEEDMNNSIAHYRQVNIR [KCNA1] | 3.34 ± 0.2 | 3.57 ± 0.53 | – | –
FPDLLLTKRDSFLKRLYRAPIDWI [ALG2] | 2.27 ± 0.29 | 2.64 ± 0.52 | – | –
SRKSSIPNNKEIPSHHPTDPVELR [PTPRD] | 4.83 ± 0.1 | 5.04 ± 0.35 | – | –
PRNPTVRWGYVAMKFAQVFGCFFY [SOAT1] | 2.33 ± 0.2 | 2.18 ± 0.2 | – | –
PPGHHAEQDAACGFCFFNSVAVAA [HDAC6] | 2.88 ± 0.51 | 2.96 ± 0.68 | – | –
APDDSKAQAHRIHIDPEIQDGSPT [PDLIM4] | 5.59 ± 0.23 | 5.47 ± 0.12 | – | –
LHRTFDPHFLRVPCWKITLFVIVP [MOG] | 3.17 ± 0.56 | 3.08 ± 0.63 | – | –

Sequence | protein stability index [1] | protein stability index [2] | protein stability index (treatment: DMSO, c terminus: native) | protein stability index (treatment: MLN4924 1 uM, 8 h, c terminus: native)
PAPALCCAPYDSRLLGSARPELGA [IRX6] | 3.08 ± 0.19 | 3.1 ± 0.25 | – | –
AGEEDPSGMVTIITGLPLDNPSVL [SMG5] | 3.7 ± 0.18 | 3.75 ± 0.19 | – | –
DSQQPGKRRKDSEEEAASPEGKRV [FANCE] | 5.66 ± 0.13 | 5.5 ± 0.25 | – | –
RLNFQTPGMASHPPIPILELADHI [PTPRD] | 3.23 ± 0.2 | 3.08 ± 0.087 | – | –
GHSLKNLEHRLNEMERTQAQLRDA [RASAL3] | 4.51 ± 0.24 | 4.58 ± 0.22 | – | –
PEGTENPLGVDESLFSYGLRESIA [SLA] | 4.04 ± 1.1 | 4.19 ± 0.1 | – | –
SIQSLTLEWNSLGTWDDAFATFCG [LRRC45] | 2.25 ± 0.25 | 2.08 ± 0.53 | – | –
NIEDYFSHHLAVYNSPQFKKTMST [FBXO39] | 2.75 ± 0.28 | 2.71 ± 0.12 | – | –
EGRPGAATFHVGGGPAQNAPHQQP [TFE3] | 4.79 ± 0.17 | 4.8 ± 0.24 | – | –
SASPIKDQPVMAVKTGEDGSNLDD [FANCE] | 5.66 ± 0.27 | 5.56 ± 0.2 | – | –
SGGGRDSSSSILRWLPEKRANPCL [ELOA2] | 3.11 ± 0.26 | 3.47 ± 0.17 | – | –
AQDLGLKMTDLLSRRLQLGSEENG [PCDHGC5] | 3.94 ± 0.22 | 3.77 ± 0.19 | – | –
RDGLAEDLAALKQRLEEETRKRED [PRPH] | 5.33 ± 0.33 | 5.25 ± 0.27 | – | –
VTQREHSSEHVTESVADLLALEEP [SLC6A17] | 5.3 ± 0.47 | 5.12 ± 0.3 | – | –
IPGFKFDNSLINQIENLNIQVEDI [LOXL2] | 3.51 ± 0.18 | 3.37 ± 0.38 | – | –
SFNILVEDRVKLFGIEIEVTDIND [PCDHGA10] | 2.17 ± 0.4 | 2.55 ± 0.59 | – | –
RPLGIRAGPNGTLFVADAYKGLFE [APMAP] | 2.66 ± 0.27 | 2.61 ± 0.44 | – | –
NSLRGVILDIHFLSQADFLVCTFS [FUT8] | 2.72 ± 0.71 | 2.79 ± 0.49 | – | –
GLTLGRSFSNYRPFEPQALGLSPS [SEPHS2] | 2.78 ± 0.36 | 2.81 ± 0.49 | – | –
LKRRFSRLENRYEALAKQVASEMR [DAPK3] | 2.47 ± 0.26 | 2.69 ± 0.17 | – | –
